According to patent publication US20260193644A1, “Compositions and Methods For Modulation of Tumor Suppressors and Oncogenes” (FLAGSHIP PIONEERING INNOVATIONS VII, LLC, priority 2022, published 2026):
No end group written: not given here.

Tests used:
Type in all cases: cell-based
[1] = system: HCT116 colon cancer cell line; test: Maestro Z impedance-based assay on HCT116 cells stably over-expressing target protein; settings: 2 days
Description: Over-expression: Stable over-expression tumor cell lines were made by transduction using lentivirus. For virus production, HEK-293T cells were cultured in DMEM with high glucose and GlutaMAX™ medium (ThermoFisher) supplemented with 10% FBS. After 24 h, cells were transfected using lipofectamine 3000 (ThermoFisher) of Lentiviral packaging plasmid mix (CELLECTA) and pGenLenti plasmids (GenScript Inc) containing: 1) no insert, 2) Target Protein encoding sequence, and 3) the AP2A1 protein (positive control for cell proliferation; https://doi.org/10.1038/sj.one.1205216), into HCT116 (Colon cancer cell line; ATCC). A Myc-tag (EQKLISEEDL) was added to the c-terminus of the expressed protein. After 48 hr post-transfection, culture media containing viruses was collected, loaded onto a 10 ml syringe and filtered through a 0.45 μm filter. […]
Maestro Z Impedance-based assay: The Maestro Z platform (Axion Biosystems) uses impedance measurements (ohms, (2) to quantify the presence of cells on the electrode. Since impedance is noninvasive and label-free, impedance assay is used to quantify dynamic cellular growth over time. For impedance recording, cells were seeded in 96 well assay plate, and the plate was docked in the Maestro Z and the automatic environment controls set the chamber to 37° C. and 5% CO2. Impedance measurements were recorded every minute for the 2 days.

NAMALWA cells = test: Chemotaxis assay (trans-well cell migration); settings: NAMALWA human Burkitt lymphoma cells; 24 hours; SDF-1 (CXCL-12)
Description: Chemotaxis Assay: NAMALWA cells (human Burkitt lymphoma cell line, ATCC) were cultured in serum-free ATCC formulated RPMI for 24 hr prior to the assay. After starvation, harvest cells and centrifuge at 1,000×g, for 5 minutes to pellet them. Resuspend the cell in a serum-free media. Using Cell Migration/Chemotaxis Assay Kit (96-well, 8 μm) from Abcam, add 150 μL of serum-free media containing desired chemoattractant to the bottom chamber. Then add 50,000 cells and desired inhibitor (or peptides) to each well of the top chamber. Place the plate and incubate at 37° C. in CO2 incubator for 24 hours. After incubation, add 110 μL of Cell Dye+Cell Dissociation Solution mix to each bottom well and incubate at 37° C. in CO2 incubator for an hour. After incubation remove the top chamber and read the plate at Ex/Em=530/590 nm.

CXCR4 = CXCR4 (Homo sapiens, UniProt P61073); test: PathHunter β-Arrestin CXCR4 human chemokine GPCR antagonist assay (gpcrMAX screening and hit-confirmation); settings: for % inhibition: hit-confirmation
Description: SEQ ID NO: 30949 blocks CXCR4 and cancer cell migration, making it suitable in the treatment of multiple cancers. Whereas SEQ ID NO: 34229 agonizes C3AR1, a key regulator of immune response and inflammation. The target proteins SEQ ID NO: 30949 and SEQ ID NO: 34229 were treated with gpcrMAX, which is a comprehensive panel covering 168 G protein-coupled receptors (GPCRs) from over 60 distinct receptor families. This panel utilizes PathHunter® β-Arrestin technology (Eurofins DiscoverX). PathHunter β-Arrestin GPCR cell lines are engineered to co-express the ProLink™ (PK) tagged GPCR and the Enzyme Acceptor (EA) tagged β-Arrestin. Activation of the GPCR-PK induces β-Arrestin-EA recruitment, forcing complementation of the two β-galactosidase enzyme fragments (EA and PK). The resulting functional enzyme hydrolyzes substrate to generate a chemiluminescent signal.
Cell Handling: PathHunter® cell lines were expanded from freezer stocks according to standard procedures. Cells were seeded in a total volume of 20 μL into white walled, 384-well microplates and incubated at 37° C. for the appropriate time prior to testing. […]
Signal Detection: Assay signal was generated through a single addition of 12.5 or 15 μL (50% v/v) of PathHunter® Detection reagent cocktail, followed by a one-hour incubation at room temperature. Microplates were read following signal generation with a PerkinElmer Envision™ instrument for chemiluminescent signal detection.
Data Analysis: Compound activity was analyzed using CBIS data analysis suite (ChemInnovation, CA). For agonist mode assays, percentage activity was calculated using the following formula: % Activity=100%×(mean RLU of test sample−mean RLU of vehicle control)/(mean MAX control ligand−mean RLU of vehicle control). For antagonist mode assays, percentage inhibition was calculated using the following formula: % Inhibition=100%×(1−(mean RLU of test sample−mean RLU of vehicle control)/(mean RLU of EC80 control−mean RLU of vehicle control)).

Jurkat cells = test: Caspase-Glo 3/7 apoptosis assay, peptide-treated Jurkat cells; settings: listed = significant
Description: Cell Culture: Tumor cell lines HCT-116 (Colon Cancer Cell line, ATCC) and U2OS (Osteoscarcoma Cell line, ATCC) cells were grown adherently in ATCC-formulated McCoy's 5a medium supplemented with 10% FBS and 1× penicillin-streptomycin at 37° C. (5% CO2). Jurkat cells (acute T-cell leukemia cell line, ATCC) were grown as suspension cultures in ATCC-formulated RPMI-1640 supplemented with 10% FBS and 1× penicillin-streptomycin at 37° C. (5% CO2). HEP-G2 cells (Liver Cancer Cell line, ATCC) cells were grown adherently in ATCC-formulated Eagle's Minimum Essential Medium (EMEM) supplemented with 10% FBS and 1× penicillin-streptomycin at 37° C. (5% CO2).
Peptide Treatment: Target protein SEQ ID NO: 37997 was synthesized through Fluorenylmethyloxycarbonyl (Fmoc) protection group chemistry using Solid Phase Peptide Synthesis (SPPS). 5 μM of target peptide and control peptides were added to a 96 well plate containing 10,000 cells (100 μL/well). A white-walled 96-well plate adequate for cell culture and compatible with the luminometer was used. (Corning)
Apoptosis Assay: Following 24 hrs of peptide treatment, an equal volume reconstituted Caspase-Glo® 3/7 assay reagent mixture (Promega) was added to the cells. The contents of wells were gently mixed using a plate shaker at 300-500 rpm for 30 seconds. The plate was then Incubate at room temperature for 3 hours. The treated plates were then read for luminescence on Promega™ GloMax® Plate Reader. A blank reaction that contained caspase-Glo® 3/7 reagent, vehicle and cell culture medium without cells was used to measure background luminescence. The blank reaction values were subtracted from experimental values. A negative control that contained caspase-Glo® 3/7 reagent and vehicle-treated cells in medium was included to determine the basal caspase activity of the cell culture system. Significant difference in apoptosis was determined using ANOVA analysis by comparing cells treated with SEQ ID NO: 37997 peptide to cells treated with an irrelevant control peptide, or vehicle control treated cells.

HepG2 cells = test: Caspase-Glo 3/7 apoptosis assay, peptide-treated HepG2 cells; settings: listed = significant
Description: Cell Culture: Tumor cell lines HCT-116 (Colon Cancer Cell line, ATCC) and U2OS (Osteoscarcoma Cell line, ATCC) cells were grown adherently in ATCC-formulated McCoy's 5a medium supplemented with 10% FBS and 1× penicillin-streptomycin at 37° C. (5% CO2). Jurkat cells (acute T-cell leukemia cell line, ATCC) were grown as suspension cultures in ATCC-formulated RPMI-1640 supplemented with 10% FBS and 1× penicillin-streptomycin at 37° C. (5% CO2). HEP-G2 cells (Liver Cancer Cell line, ATCC) cells were grown adherently in ATCC-formulated Eagle's Minimum Essential Medium (EMEM) supplemented with 10% FBS and 1× penicillin-streptomycin at 37° C. (5% CO2). […]
Apoptosis Assay: Following 24 hrs of peptide treatment, an equal volume reconstituted Caspase-Glo® 3/7 assay reagent mixture (Promega) was added to the cells. […] The treated plates were then read for luminescence on Promega™ GloMax® Plate Reader. A blank reaction that contained caspase-Glo® 3/7 reagent, vehicle and cell culture medium without cells was used to measure background luminescence. […] Significant difference in apoptosis was determined using ANOVA analysis by comparing cells treated with SEQ ID NO: 37997 peptide to cells treated with an irrelevant control peptide, or vehicle control treated cells.

[2] = system: HCT116 colon cancer cell line; test: WST-1 proliferation assay on HCT116 cells stably over-expressing target protein; settings: low serum (0.1% FBS); 48 hours
Description: Over-expression: Stable over-expression tumor cell lines were made by transduction using lentivirus. For virus production, HEK-293T cells were cultured in DMEM with high glucose and GlutaMAX™ medium (ThermoFisher) supplemented with 10% FBS. After 24 h, cells were transfected using lipofectamine 3000 (ThermoFisher) of Lentiviral packaging plasmid mix (CELLECTA) and pGenLenti plasmids (GenScript Inc) containing: 1) no insert, 2) Target Protein encoding sequence, and 3) the AP2A1 protein (positive control for cell proliferation; https://doi.org/10.1038/sj.one.1205216), into HCT116 (Colon cancer cell line; ATCC). A Myc-tag (EQKLISEEDL) was added to the c-terminus of the expressed protein. After 48 hr post-transfection, culture media containing viruses was collected, loaded onto a 10 ml syringe and filtered through a 0.45 μm filter. For cell transduction, HCT116 colorectal cancer cells were seeded in 6-well plates, the virus was added to the cells. After post-transduction, stable cell mixed populations are selected for with puromycin for 14 days. Expression of the Target Protein and controls are confirmed by immunoblot of 50 μg of cell lysate using anti-myc-tag polyclonal antibody (CST).
Proliferation: Polyclonal cell lines that over-express the Target Protein or control, wild-type HCT-116 cells, were plated in 96 well plate (10,000 or 5,000 cells per well) grown in standard media in both low serum (0.1% FBS) and high serum (10% FBS) conditions, respectively. After 48 hours, the cells are subjected to the WST-1 ([…]) assay. The WST-1 assay (Sigma) is a measure of the metabolic activity of group of cells. The higher the metabolic activity the higher the proliferation rate. Significant differences in proliferation are determined by comparing protein-expressing cell lines with a stable cell line of the empty expression vector (control) using ANOVA analysis.

Chain of CXCR4 (P61073 whole entry): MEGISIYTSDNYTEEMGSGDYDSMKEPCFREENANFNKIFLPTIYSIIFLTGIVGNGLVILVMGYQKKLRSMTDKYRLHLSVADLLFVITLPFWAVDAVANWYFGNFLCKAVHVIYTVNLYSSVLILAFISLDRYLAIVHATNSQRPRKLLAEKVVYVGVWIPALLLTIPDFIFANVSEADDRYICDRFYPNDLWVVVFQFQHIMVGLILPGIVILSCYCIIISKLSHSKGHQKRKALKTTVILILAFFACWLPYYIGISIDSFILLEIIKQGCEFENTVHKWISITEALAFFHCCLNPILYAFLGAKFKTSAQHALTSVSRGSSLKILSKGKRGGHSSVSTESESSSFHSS

SEQ ID NO: 30462: target protein over-expressed (Myc-tagged) in stable HCT116 cell line; oncogene (METFEIFYLKCIRVNLISRQLNTFFLAVLLVVCMPCFHSVCTGKRT; cysteine pairing not given here; also: Myc tag; listed as Homo sapiens)
proliferation over time (impedance) on over-expression vs Empty Vector [1]: significantly increases proliferation

SEQ ID NO: 30949: novel peptide GPCR ligand that blocks CXCR4; sequence only in Sequence Listing (MTAFGLGIPTFLVMQPSGSQPRFPALTQNGVALVRTPLTSVYLRVRICRVLGPRSQPS; listed as Homo sapiens)
chemotactic migration (NAMALWA cells): significantly inhibit the chemotactic migration
GPCR ligand mode at CXCR4 (CXCR4; gpcrMAX panel): blocked CXCR4
% inhibition (CXCR4; 0.3 μM): ~ 80%
% inhibition (CXCR4; 1 μM): ~ 80%

SEQ ID NO: 34224: ORF peptide; sequence only in Sequence Listing (MSFDHPEKNGPWPADPINLPSHG; listed as Homo sapiens)
peptides inducing significant apoptosis vs vehicle control (Jurkat cells): SEQ ID NO: 34224
z-score compared to vehicle control (peptides inducing significant apoptosis) (HepG2 cells): SEQ ID NO: 34224

B1: SEQ ID NO: 26966: ORF peptide; sequence only in Sequence Listing (peptide, listed as Homo sapiens)
chain: VSPRFLVLKSSPAHRDSDSPQTPRLRVMESRTLLLLFSGAVALIQTWADYNYNQGRNDLIFTLQLWKRQ
z-score compared to vehicle control (peptides inducing significant apoptosis) (HepG2 cells): SEQ ID NO: 26966

B2: AP2A: published oncoprotein, over-expressed positive control for cell proliferation (protein, UniProt O95782 1-977, looked up)
AP-2 complex subunit alpha-1: MPAVSKGDGMRGLAVFISDIRNCKSKEAEIKRINKELANIRSKFKGDKALDGYSKKKYVCKLLFIFLLGHDIDFGHMEAVNLLSSNKYTEKQIGYLFISVLVNSNSELIRLINNAIKNDLASRNPTFMCLALHCIANVGSREMGEAFAADIPRILVAGDSMDSVKQSAALCLLRLYKASPDLVPMGEWTARVVHLLNDQHMGVVTAAVSLITCLCKKNPDDFKTCVSLAVSRLSRIVSSASTDLQDYTYYFVPAPWLSVKLLRLLQCYPPPEDAAVKGRLVECLETVLNKAQEPPKSKKVQHSNAKNAILFETISLIIHYDSEPNLLVRACNQLGQFLQHRETNLRYLALESMCTLASSEFSHEAVKTHIDTVINALKTERDVSVRQRAADLLYAMCDRSNAKQIVSEMLRYLETADYAIREEIVLKVAILAEKYAVDYSWYVDTILNLIRIAGDYVSEEVWYRVLQIVTNRDDVQGYAAKTVFEALQAPACHENMVKVGGYILGEFGNLIAGDPRSSPPVQFSLLHSKFHLCSVATRALLLSTYIKFINLFPETKATIQGVLRAGSQLRNADVELQQRAVEYLTLSSVASTDVLATVLEEMPPFPERESSILAKLKRKKGPGAGSALDDGRRDPSSNDINGGMEPTPSTVSTPSPSADLLGLRAAPPPAAPPASAGAGNLLVDVFDGPAAQPSLGPTPEEAFLSELEPPAPESPMALLADPAPAADPGPEDIGPPIPEADELLNKFVCKNNGVLFENQLLQIGVKSEFRQNLGRMYLFYGNKTSVQFQNFSPTVVHPGDLQTQLAVQTKRVAAQVDGGAQVQQVLNIECLRDFLTPPLLSVRFRYGGAPQALTLKLPVTINKFFQPTEMAAQDFFQRWKQLSLPQQEAQKIFKANHPMDAEVTKAKLLGFGSALLDNVDPNPENFVGAGIIQTKALQVGCLLRLEPNAQAQMYRLTLRTSKEPVSRHLCELLAQQF
proliferation over time (impedance) on over-expression vs Empty Vector [1]: significantly increases proliferation
proliferation (WST-1) on over-expression vs Empty Vector [2]: significantly increases proliferation
